Tests used:
Assay in all cases: purified protein
purified protein [1] = substrate: CNc1ncnc2c1ncn2[C@@H]1O[C@H](COP(=O)(O)O)[C@@H](O)[C@H]1O; settings: 37 °C, HEPES, NaCl, MgCl2, 2-mercaptoethanol
purified protein [2] = substrate: CN(C)c1ncnc2c1ncn2[C@@H]1O[C@H](COP(=O)(O)O)[C@@H](O)[C@H]1O; settings: 37 °C, HEPES, NaCl, MgCl2, 2-mercaptoethanol
purified protein [3] = substrate: CC(C)=CCNc1ncnc2c1ncn2[C@@H]1O[C@H](COP(=O)(O)O)[C@@H](O)[C@H]1O; settings: 37 °C, HEPES, NaCl, MgCl2, 2-mercaptoethanol
purified protein [4] = substrate: CC(C)=CCNc1ncnc2c1ncn2[C@@H]1O[C@H](CO)[C@@H](O)[C@H]1O; settings: ATP 1 mM, 37 °C, HEPES, NaCl, MgCl2, CaCl2
purified protein [5] = substrate: CN(C)c1ncnc2c1ncn2[C@@H]1O[C@H](CO)[C@@H](O)[C@H]1O; settings: ATP 1 mM, 37 °C, HEPES, NaCl, MgCl2, CaCl2
purified protein [6] = substrate: CNc1ncnc2c1ncn2[C@@H]1O[C@H](CO)[C@@H](O)[C@H]1O; settings: ATP 1 mM, 37 °C, HEPES, NaCl, MgCl2, CaCl2

Protein | Km (purified protein [1]) | kcat (purified protein [1]) | Km (purified protein [2]) | kcat (purified protein [2]) | Km (purified protein [3]) | kcat (purified protein [3]) | Km (purified protein [4]) | kcat (purified protein [4]) | Km (purified protein [5]) | kcat (purified protein [5]) | Km (purified protein [6]) | kcat (purified protein [6])
ADAL (hADAL, adenosine deaminase-like) (Homo sapiens) (protein) MIEAEEQQPCKTDFYSELPKVELHAHLNGSISSHTMKKLIAQKPDLKIHDQMTVIDKGKKRTLEECFQMFQTIHQLTSSPEDILMVTKDVIKEFADDGVKYLELRSTPRRENATGMTKKTYVESILEGIKQSKQENLDIDVRYLIAVDRRGGPLVAKETVKLAEEFFLSTEGTVLGLDLSGDPTVGQAKDFLEPLLEAKKAGLKLALHLSEIPNQKKETQILLDLLPDRIGHGTFLNSGEGGSLDLVDFVRQHRIPLELCLTSNVKSQTVPSYDQHHFGFWYSIAHPSVICTDDKGVFATHLSQEYQLAAETFNLTQSQVWDLSYESINYIFASDSTRSELRKKWNHLKPRVLHI | 47 ± 1.1 µM | 2.4 ± 0.068 s⁻¹ | 65 ± 1.7 µM | 2.6 ± 0.036 s⁻¹ | 35 ± 1.4 µM | 1.9 ± 0.066 s⁻¹ |  |  |  |  |  | 
ADK (human adenosine kinase) (Homo sapiens) (protein) MTSVRENILFGMGNPLLDISAVVDKDFLDKYSLKPNDQILAEDKHKELFDELVKKFKVEYHAGGSTQNSIKVAQWMIQQPHKAATFFGCIGIDKFGEILKRKAAEAHVDAHYYEQNEQPTGTCAACITGDNRSLIANLAAANCYKKEKHLDLEKNWMLVEKARVCYIAGFFLTVSPESVLKVAHHASENNRIFTLNLSAPFISQFYKESLMKVMPYVDILFGNETEAATFAREQGFETKDIKEIAKKTQALPKMNSKRQRIVIFTQGRDDTIMATESEVTAFAVLDQDQKEIIDTNGAGDAFVGGFLSQLVSDKPLTECIRAGHYAASIIIRRTGCTFPEKPDFH |  |  |  |  |  |  | 10 ± 1.0 µM | 0.18 ± 0.018 s⁻¹ | 6.1 ± 0.31 µM | 0.27 ± 0.0024 s⁻¹ | 15 ± 1.8 µM | 0.28 ± 0.0063 s⁻¹
